Source: patent publication US20140120095A1 (Boehringer Ingelheim, published 2014)

Key:
[1] = molecular target: T1, recombinant human DLL4 (C-terminally His-tagged extracellular domain, R&D Systems) (human, UniProt Q9NR61 25-522, biotinylated in the competition ELISA); assay: ProteOn off-rate screen, periplasmic extract, coated human DLL4
T1 construct: also called rhDLL4; hDLL4
Description: (§1) In a first cycle, amino acid substitutions are introduced randomly in both framework (FW) and complementary determining regions (CDR) using the error-prone PCR method. […] After a polish step, PCR products are inserted via unique restriction sites into a vector designed to facilitate phage display of the VHH library. Consecutive rounds of in-solution selections are performed using decreasing concentrations of biotinylated recombinant human DLL4 (biot-rhDLL4) and trypsin elutions. Affinity-driven selections in a third round using cold rhDLL4 (at least 100× excess over biot-rhDLL4) are also performed. No selections on murine DLL4 are included as (conservation of) cross-reactivity is assessed at the screening level. Individual mutants are produced as recombinant protein using an expression vector derived from pUC119, which contains the LacZ promoter, a resistance gene for ampicillin, a multiple cloning site and an ompA leader sequence (pAX50). E. coliTG1 cells are transformed with the expression vector library and plated on agar plates (LB+Amp+2% glucose). Single colonies are picked from the agar plates and grown in 1 mL 96-deep-well plates. VHH expression is induced by adding IPTG (1 mM). Periplasmic extracts (in a volume of ˜80 uL) are prepared according to standard methods and screened for binding to recombinant human and mouse DII4 in a ProteOn (BioRad, Hercules, Calif., USA) off-rate assay. In brief, a GLC ProteOn Sensor chip is coated with recombinant human DII4 on the “ligand channels” L2 and L4 (with L1/L3 as reference channel), while “ligand channels” […] is coated with mouse DII4. Periplasmic extract of affinity-matured clones is diluted 1/10 and injected across the “analyte channels” A1-A6. An average off-rate is calculated of the wild type clones present in the plate and served as a reference to calculate off-rate improvements.

[2] = molecular target: T2, recombinant mouse DLL4 (C-terminally His-tagged extracellular domain, R&D Systems) (mouse, UniProt Q9JI71 27-532); assay: ProteOn off-rate screen, periplasmic extract, coated mouse DLL4
T2 construct: extracellular domain; also called rmDLL4; mDLL4
T2 sequence (Q9JI71 27-532): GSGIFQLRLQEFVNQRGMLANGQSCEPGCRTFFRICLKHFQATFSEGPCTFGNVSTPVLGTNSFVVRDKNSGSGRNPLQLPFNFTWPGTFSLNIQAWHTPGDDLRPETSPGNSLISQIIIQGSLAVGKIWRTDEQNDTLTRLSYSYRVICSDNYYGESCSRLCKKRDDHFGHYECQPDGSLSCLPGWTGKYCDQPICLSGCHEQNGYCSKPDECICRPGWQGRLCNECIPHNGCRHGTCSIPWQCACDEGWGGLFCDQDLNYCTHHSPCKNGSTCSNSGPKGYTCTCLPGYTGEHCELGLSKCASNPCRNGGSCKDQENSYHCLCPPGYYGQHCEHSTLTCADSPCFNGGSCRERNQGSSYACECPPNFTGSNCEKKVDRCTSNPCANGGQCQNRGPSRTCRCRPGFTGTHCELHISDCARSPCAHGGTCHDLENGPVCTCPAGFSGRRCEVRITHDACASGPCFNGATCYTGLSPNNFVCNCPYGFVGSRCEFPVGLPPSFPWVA
Description: as §1

[3] = molecular target: T3, human DLL4 overexpressed on cells (human, UniProt Q9NR61 27-685); assay: FMAT, labelled hNotch1-Fc on CHO-hDLL4, periplasmic extract
T3 construct: full length human DLL4 on CHO or HEK293 cells; also called CHO-hDLL4; CHO-hDII4
Excerpt: (§2) All calculations are based on the FL1_total signal which comprises the average of the fluorescence per well times the number of counts per well.

[4] = molecular target: T4, mouse DLL4 overexpressed on cells (mouse, UniProt Q9JI71 27-686); assay: FMAT, labelled hNotch1-Fc on CHO-mDLL4, periplasmic extract
T4 construct: whole, on cells; also called CHO-mDLL4; CHO-mDII4
T4 sequence (Q9JI71 27-686): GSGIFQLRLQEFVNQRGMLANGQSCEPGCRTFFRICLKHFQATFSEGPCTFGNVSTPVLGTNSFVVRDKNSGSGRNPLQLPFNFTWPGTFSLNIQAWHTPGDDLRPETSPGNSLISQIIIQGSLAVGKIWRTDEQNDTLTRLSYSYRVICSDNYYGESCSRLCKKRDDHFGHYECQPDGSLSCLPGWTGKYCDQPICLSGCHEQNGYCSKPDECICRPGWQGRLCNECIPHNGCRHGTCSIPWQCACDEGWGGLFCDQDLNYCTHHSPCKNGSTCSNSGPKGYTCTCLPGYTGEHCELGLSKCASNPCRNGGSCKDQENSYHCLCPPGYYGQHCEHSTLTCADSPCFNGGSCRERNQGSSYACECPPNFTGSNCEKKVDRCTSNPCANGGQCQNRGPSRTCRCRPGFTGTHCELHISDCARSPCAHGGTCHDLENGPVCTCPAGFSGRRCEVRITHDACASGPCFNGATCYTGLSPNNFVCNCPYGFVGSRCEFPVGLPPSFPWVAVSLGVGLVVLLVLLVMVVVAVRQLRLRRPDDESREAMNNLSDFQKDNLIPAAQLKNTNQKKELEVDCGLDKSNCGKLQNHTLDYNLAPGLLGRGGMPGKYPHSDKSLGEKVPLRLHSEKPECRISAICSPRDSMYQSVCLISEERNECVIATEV
Excerpt: as §2

| Binder | fold (off-rate vs DLLBII101G08) [1] [fold] | koff [1] [s⁻¹] | fold (off-rate vs DLLBII101G08) [2] [fold] | koff [2] [s⁻¹] | % inh [3] [%] | % inh [4] [%] |
| --- | --- | --- | --- | --- | --- | --- |
| DLLBII129H04 (VHH) VHH: EVQLVESRGGLVQAGGSLRLSCAASGRTFSSYAMAWFRQAPGKEREYVAAIRWSGGTAYYADSVQGRFTISRDNAKNTVYLQMNSLKPEDTAVYYCANRAPDTRLEPYLYDHWGQGTQVTVSS | 33 | 6.8e-05 | 27 | 0.00025 | – | – |
| DLLBII129G10 (VHH) VHH: EVQLVESGGGLVQAGGSLRLSCAASGRTFSSYAMAWYRQAPGKEREYVAAIRWSGGTAYYADSVQSRFTISRDNAKNTVYLQMNSLKPEDTAVYYCANRAPDTRLEPYEYDHWGQGTQVTVSS | 31 | 7.3e-05 | 26 | 0.00026 | – | – |
| DLLBII130B02 (VHH) VHH: EVQLVESGGGLVQAGGSLRLSCAASGRTFSSYAMAWFRQAPGKEREYVAAIRWSGGTAYYADSVQGRFTISRDNAKNTVYLQMYSLKPEDTAVYYCANRAPDTRLAPYLYDHWGQGTQVTVSS | 23 | 7.8e-05 | 17 | 0.00029 | – | – |
| DLLBII129D01 (VHH) VHH: EVQLVESGGGLVQAGGSLRLSCAASGRTFSSYAMAWFRQAPGKEREYVAAIRWSGGTAYYADSVQSRFTITRDNAKNTVYLQMNSLKPEDTAVYYCANRAPDTRLEPYLYDHWGQGTQVTVSS | 26 | 8.5e-05 | 26 | 0.00026 | – | – |
| DLLBII130D06 (VHH) VHH: EVQLVESGGGLVQAGGSLRLSCSASGRTFSSYAMAWYRQAPGKEREYVAAIRWSGETAYYADSVQGRFTISRDNAKNTVYLQMNSLKPEDTAVYYCANRAPDTRLEPYLYDHWGQGTQVTVSS | 26 | 6.9e-05 | 16 | 0.00031 | – | – |
| DLLBII129E07 (VHH) VHH: EVQLVESGGGLVQAGGSLRLSCSASGRTFSSYAMAWYRQAPGKEREYVAAIRWSGGTAYYPDSVQGRFTISRDNAKNTVYLQMNSLKPEDTAVYYCANRAPDTRLAPYEYDHWGQGTQVTVSS | 21 | 0.00011 | 24 | 0.00028 | – | – |
| DLLBII130B04 (VHH) VHH: EVQLVESGGGLVQAGGSLRLSCAASGRTFSSYAMAWFRQAPGKEREYVAAIRWSGGTAYYADSVQGRFTISRDNAKNTVYLQMNSLKPEDTAVYYCANRAPDTRLRPYLYDHWGQGTQVTVSS | 22 | 8.3e-05 | 17 | 0.00029 | – | – |
| DLLBII130A05 (VHH) VHH: EVQLVESGGGLVQAGGSLRLSCAASGRTFSSYAMAWYRQAPGKEREYVAAIRWSGGTAYYADSVQGRFTISRDNAKNTVYLQMNSLKPEDTAVYYCANRAPDTRLGPYLYDHWGQGTQVTVSS | 24 | 7.5e-05 | 17 | 0.0003 | – | – |
| DLLBII129E03 (VHH) VHH: EVQLVESGGGLVQAGGSLRLSCAASGRTFSSYAMAWFRQAPGKDREYVAAIRWSGGTAYYADSVQGRFTISRDNAKNTVYLQMNSLKPEDTAVYYCANRAPDTRLAPYLYDYWGQGTQVTVSS | 20 | 0.00011 | 18 | 0.00036 | – | – |
| DLLBII129H05 (VHH) VHH: EVQLVESGGGLVQAGGSLRLSCAASGRTFSSYAMAWYRLAPGKEREYVAAIRWSGGTAYYADSVQGRFTISRDNAKNTVYLQMNSLKPEDTAVYYCANRAPDTRLGPYLYDYWGQGTQVTVSS | 24 | 9.4e-05 | 19 | 0.00035 | – | – |
| DLLBII129B02 (VHH) VHH: EVQLVESGGGLVQAGGSLSLSCAASGRTFSSYAMAWYRQAPGKEREYVAAIRWSGGTAYYADSVQGRFTISRDNAKNTVYLQMNSLKPEDTAVYYCANRAPDTRLEPYEYDHWGQGTQVTVSS | 30 | 7.6e-05 | 26 | 0.00026 | – | – |
| DLLBII130E03 (VHH) VHH: EVQLVESGGGLVQAGGSLRLSCAASGRTFSSYAMAWYRQAPGKEREYVAAIRWSGGTAYYADSVQGRFTISRDNAKNTVYLQMNSLKPEDTAVYYCANRAPDTRLEPYEYDHWGQGTQVTVSS | 24 | 7.5e-05 | 18 | 0.00027 | – | – |
| DLLBII129H02 (VHH) VHH: EVQLVESGGGLVQAGGSLRLSCAASGRTFSSYAMAWYRQAPGKEREYVAAIRWSGGTAYYADSVQGRFTISRDNAKNTVYLQMNSLKPEDTAVYYCANRAPDTRLRPYEYDYWGQGTQVTVSS | 23 | 9.9e-05 | 19 | 0.00034 | – | – |
| DLLBII129G09 (VHH) VHH: EVQLVESGGGLVQAGGSLRLSCAASGRTFSSYAMAWYRQAPGKEREYVAAIRWSGETAYYADSVQGRFTISRDNAKNTVYLQMNSLKPEDTAVYYCANRAPDTRLEPYLYDHWGQGTQVTVSS | 26 | 8.8e-05 | 20 | 0.00034 | – | – |
| DLLBII47D01 (VHH) VHH: EVQLVESGGGLVQPGGSLRLSCAASGFTFDDYAIGWFRQAPGKEREGVSCISSSGSTYYADSVKGRFTISRDNAKNTVYLQMNSLKPEDTAVYYCAIAGASSWCFPPGYWGQGTQVTVSS | – | – | – | – | 87 | – |
| DLLBII101H09 (VHH) VHH: EVQLVESGGGLVQPGGSLRLSCAASGFTLGYYTIVWFRQAPGKERKGVSCISSRDGSRYYADSVKGRFTISRDNAKNTVYLRMNSLKPEDTAVYYCAAGPDCSSYDYWGQGTQVTVSS | – | – | – | – | 87 | 75 |
| DLLBII112E07 (VHH) VHH: EVQLVESGGGLVQAGGSLRLSCAASGRTVRSYATGWFRQAPGKEREFVAALRWSIGSIASVYYDDSVKGRFTISGDNAENTVYLQMNALKPEDTAIYYCASTTRGRYSALSASAYDYWGQGTQVTVSS | – | – | – | – | 80 | 85 |
| DLLBII112A03 (VHH) VHH: EVQLVESGGGLVQPGGSLRLSCAASGIRFSINGMGWYRQAPGKQREAVATITRGGIRDYTDSVKGRFTISRDIARNTVYLQMNNLKPEDSAVYYCNIDIYWGRGTQVTVSS | – | – | – | – | 72 | 97 |
| DLLBII102G04 (VHH) VHH: EVQLMESGGGLVQPGGSLRLSCAASGFTFSSYAMSWVRQAPGKGLEWVSRITSGGRTTYRDSVKGRFTISRDNSKNTLYLQMNSLKPEDTALYYCAKARGDIDVYTLSDSRGQGTQVTVSS | – | – | – | – | 86 | 82 |
| DLLBII112A04 (VHH) VHH: EVQLVESGGGLVQAGGSLRLSCAAFGRTPYGMGWFRQAPGKEREFVAAITSDGSTNYADSVKGRFTISRDNAKNAVSLQMNSLKPEDTAVYYCTAPYYSDFEGTTTEYDYWGQGTQVTVSS | – | – | – | – | 75 | 90 |
| DLLBII102F08 (VHH) VHH: EVQLVESGGGLVQTGDSLRLSCAASGSTFSNYRMGWFRQGPGKEREFVAAIGRNGQNTYYTDSVKGRFTVTRDNAKNMVYLQMNSLKPEDSAVYTCAASLRGWDTTRIDYEYWGQGTQVTVSS | – | – | – | – | 85 | 75 |
| DLLBII101H05 (VHH) VHH: EVQLVESGGGSAQAGGSLRLSCAASGRTSSTYAMGWFRQAPGKEHEFVSAIGRGTGATSYGDSVKGRFTISRDNAKNTVYLQMNSLQLEDTGDYYCVAGRGFYHDYSSYEYRGQGTQVTVSS | – | – | – | – | 85 | 83 |
